From patent US20090137467A1 come the findings set out here.

Assay [1] concerns the target [Asn516]β-RNAP (Escherichia coli).
Assay [2] shares this target. This is another data set of the same source.
Assay [3] has as its target Escherichia coli RNA polymerase (Escherichia coli) (UniProt P0A8T7).

Like-named read-outs stand apart in the source and are kept apart here.

In the case of “{rifamycin SV}-{CH2C(O)NH(CH2)6NHC(O)CH2S(CH2)3C(NH2+)}-{[Lys5]MccJ25} (from UniProt Q9X2V7) (peptide)”, the inhibition of transcription (IC50) in assay [1] was found to be 130 µM.
For “{rifamycin SV}-{CH2C(O)NH(CH2)8NHC(O)CH2S(CH2)3C(NH2+)}-{[Lys5]MccJ25} (from UniProt Q9X2V7) (peptide)”, the inhibition of transcription (IC50) in assay [1] stood at 100 µM.
Consider “{rifamycin SV}-{CH2C(O)NH(CH2)10NHC(O)(CH2)2(C2N3)(CH2)4C(O)}-{[Lys5]microcin J25} (from UniProt Q9X2V7) (peptide)”, for which the inhibition of transcription (IC50) in assay [2] is 220 µM.
On to “{rifamycin SV}-{CH2C(O)NH(CH2)10NHC(O)CH2S(CH2)3C(NH2+)}-{[Lys5]MccJ25} (from UniProt Q9X2V7) (peptide)”, for which the inhibition of transcription (IC50) in assay [1] came out at 95 µM.
Turning to “{rifamycin SV}-{CH2C(O)NH(CH2)12NHC(O)CH2S(CH2)3C(NH2+)}-{[Lys5]microcin J25} (from UniProt Q9X2V7) (peptide)”, the inhibition of RNAP (IC50) in assay [3] was 0.002 µM. Besides, in assay [1], the inhibition of transcription (IC50) amounted to 48 µM.
